Biological target: wt HBc capsid like particles (Hepatitis B virus core protein) (Human Hepatitis B virus) (UniProt P03147)
Experiment: cryo-EM structure

## wt HBc capsid like particles (Hepatitis B virus core protein) (from UniProt P03147) (natural protein)
  stoichiometry N: 240

Reference: publication PMC8618838
